Experimental data: patent US20170320956A1 (KYMAB, published 2017)
Where two headings read alike, the source gives them in different places.

Columns and labels:
[1] = biological target: T1, recombinant human LIGHT-214E, FLAG-tagged extracellular domain (human); assay: HTRF competition, HVEM-Fc binding to Flag-hLIGHT-214E
T1 construct: Trimer; Biotinylated in some assays
T1 chain: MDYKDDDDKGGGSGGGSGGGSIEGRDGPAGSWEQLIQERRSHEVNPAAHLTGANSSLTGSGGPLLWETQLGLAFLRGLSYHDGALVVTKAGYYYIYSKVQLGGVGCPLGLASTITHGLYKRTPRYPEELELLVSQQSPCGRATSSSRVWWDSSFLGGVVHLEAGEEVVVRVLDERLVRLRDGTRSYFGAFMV
Experimental: (§1) The following methods were carried out with a titration of inhibitor in order to establish the clone potency as measured by IC50 values in the assay. 5 μl of Flag-tagged hLIGHT (in-house) diluted to 2.5 nM final concentration (10 nM working concentration) in HTRF buffer with 5 μl of a titration of antibody purified from hybridoma supernatant diluted in HTRF assay buffer from 300 nM final (1200 nM working concentration) was pre-incubated for 1 hour at room temperature. To wells used to define total binding, 5 μl of LIGHT (10 nM working, 2.5 nM final) and 5 μl of hybridoma maintaining media (HMM,)) were added. To wells used to define non specific binding (receptor only) 10 μl of HMM was added. Total and non specific binding wells were pre-incubated for 1 hr at RT in the same plate as wells containing titration of inhibitor.

[2] = biological target: T2, mouse LIGHT (mouse, UniProt Q9QYH9 72-239, limits assumed); assay: SPR ProteOn, mAb captured on anti-mouse IgG
T2 construct: also called murine LIGHT
T2 sequence (looked up): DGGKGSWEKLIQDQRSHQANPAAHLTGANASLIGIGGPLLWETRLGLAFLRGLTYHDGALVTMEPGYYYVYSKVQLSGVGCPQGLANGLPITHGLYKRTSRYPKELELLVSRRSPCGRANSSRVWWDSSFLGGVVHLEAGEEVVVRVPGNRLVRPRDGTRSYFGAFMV

[3] = biological target: T1, recombinant human LIGHT-214E, …; assay: HTRF competition, LTβR-Fc binding to Flag-hLIGHT-214E
Experimental: as §1
LIGHT receptor was diluted in HTRF assay buffer and added to all wells, 5 μl/well of HVEM-Fc or LTβR-Fc (R&D systems) at 1.2 nM for HVEM (0.3 nM final) and 0.4 nM for LTβR (0.1 nM final).

[4] = biological target: T1, recombinant human LIGHT-214E, …; assay: cell-based or functional assay
[5] = biological target: human LIGHT-214E, full length, expressed on the surface of CHO-S cells (human, UniProt O43557 1-240); assay: FACS, CHO-S cells expressing hLIGHT-214E
[6] = biological target: T3, recombinant cynomolgus monkey LIGHT, FLAG-tagged extracellular domain (cynomolgus (Macaca fascicularis), UniProt E9NVF7 59-240); assay: SPR ProteOn, mAb captured on anti-mouse IgG, LIGHT 256 nM, 25 C, apparent affinity
T3 construct: extracellular domain; also called cynomolgus LIGHT; cyno LIGHT
Experimental: (§2) SPR analysis was carried out using the ProteOn™ XPR36 Array System (BioRad). Anti-mouse IgG (GE Healthcare BR-1008-38) was immobilised on a GLC biosensor surface using amine coupling, the surface was then blocked using 1M ethanolamine. […] Apparent affinities for the LIGHT-antibody interaction were determined using the 1:1 model inherent to the ProteOn XPR36 analysis software. The assay was run using HBS-EP (Teknova) as running buffer and carried out at 25° C.
Target sequence in this assay (E9NVF7 entry or part of it): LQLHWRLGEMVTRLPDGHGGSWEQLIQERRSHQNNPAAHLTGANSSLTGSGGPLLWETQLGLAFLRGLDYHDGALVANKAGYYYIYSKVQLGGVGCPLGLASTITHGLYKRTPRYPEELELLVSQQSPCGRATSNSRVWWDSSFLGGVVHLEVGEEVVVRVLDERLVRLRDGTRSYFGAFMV

[7] = biological target: T4, recombinant human LIGHT-214K, FLAG-tagged extracellular domain (human); assay: as above
T4 construct: the IgK leader peptide is marked only by underlining (not visible here), so its residues were not removed; Trimer
T4 chain: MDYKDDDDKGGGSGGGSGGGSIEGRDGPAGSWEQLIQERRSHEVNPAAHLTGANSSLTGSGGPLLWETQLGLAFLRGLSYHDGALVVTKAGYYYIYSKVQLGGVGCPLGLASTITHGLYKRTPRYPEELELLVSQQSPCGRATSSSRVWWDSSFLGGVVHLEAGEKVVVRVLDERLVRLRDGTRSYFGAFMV
Experimental: as §2

[8] = biological target: T2, mouse LIGHT; assay: SPR ProteOn, mAb captured on anti-human IgG
[9] = biological target: T4, recombinant human LIGHT-214K, …; assay: SPR ProteOn, mAb captured on anti-human IgG, 25 C, apparent affinity
[10] = biological target: T1, recombinant human LIGHT-214E, …; assay: HTRF competition, AlexaFluor 647 LTβR-Fc binding to Flag-hLIGHT-214E
[11] = biological target: T1, recombinant human LIGHT-214E, …; assay: HTRF competition, AlexaFluor 647 HVEM-Fc binding to Flag-hLIGHT-214E
[12] = biological target: T1, recombinant human LIGHT-214E, …; assay: as above
Experimental: as §1
(§3) The final IgG4(PE) format lead panel was analysed for neutralization activity as in Example 3. Antibodies were tested for their ability to neutralize LIGHT binding to its receptors, HVEM and LTβR, in an HTRF assay. Antibodies were also tested for their ability to neutralize LIGHT-induced IL-8 release by HT29 colon carcinoma cells.
(§4) HTRF assays were performed as per Example 3, with the following modifications: HVEM-Fc and LTβR-Fc were labelled with AlexaFluor 647, and an anti-Flag K antibody (Cisbio) was used for detection.

[13] = biological target: T3, recombinant cynomolgus monkey LIGHT, …; assay: SPR ProteOn, mAb captured on anti-human IgG, 37 C
[14] = biological target: T4, recombinant human LIGHT-214K, …; assay: SPR ProteOn, mAb captured on anti-human IgG, 37 C
[15] = biological target: T1, recombinant human LIGHT-214E, …; assay: SPR ProteOn, mAb captured on anti-human IgG, 37 C
[16] = biological target: T1, recombinant human LIGHT-214E, …; assay: cell-based or functional assay
[17] = biological target: T5, rabbit LIGHT protein, FLAG-tagged extracellular domain (rabbit); assay: SPR ProteOn, mAb captured on anti-human IgG, 25 C
T5 chain: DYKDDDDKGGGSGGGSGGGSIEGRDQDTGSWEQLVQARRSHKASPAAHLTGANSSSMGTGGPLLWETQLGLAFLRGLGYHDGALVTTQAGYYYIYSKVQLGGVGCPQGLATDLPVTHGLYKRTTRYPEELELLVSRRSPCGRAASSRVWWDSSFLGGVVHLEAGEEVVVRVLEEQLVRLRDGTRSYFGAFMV
Experimental: This created a capture surface suitable for capturing human antibodies. The LIGHT antibodies were captured on this anti-human IgG surface, and then human and rabbit LIGHT proteins were passed over captured LIGHT Abs at a concentration of 200 nM. A buffer injection was used to double reference the LIGHT binding sensorgrams. The assay was run at 25° C., using HBS-EP as running buffer.

[18] = biological target: T1, recombinant human LIGHT-214E, …; assay: HTRF competition, AlexaFluor 647 LTβR-Fc binding to Flag-hLIGHT-214E
Experimental: as §1, §3, §4

[19] = biological target: T1, recombinant human LIGHT-214E, …; assay: SPR ProteOn, mAb captured on anti-mouse IgG, LIGHT 256 nM, 25 C, apparent affinity
Experimental: as §2

[20] = biological target: T4, recombinant human LIGHT-214K, …; assay: SPR cross-binding study, IgG4(PE) format; column hLIGHT 214K Binder
Experimental: All antibodies tested in the competition SPR were in human IgG4(PE) format (see Example 5 for re-formatting methods). To investigate antibodies that may share the same binding region on LIGHT, an SPR based assay was carried out on the ProteOn™ XPR36 Array System. […] The anti-human IgG surface was used as a capture surface to capture test antibodies as “ligands” for analysis. Using the ProteOn™ XPR36 Array System ability to address the capture surface in either the vertical or horizontal orientation the assay was carried out as follows. The “Ligand” antibodies were captured in the vertical orientation, and then a 1 in 1000 dilution of mouse serum was used to block the capture surface in the horizontal orientation. LIGHT was then passed over the capture surface in the horizontal orientation and bound to the captured ligand antibody, after which the same ligand antibody was passed over the “antibody-LIGHT” complex, (LIGHT is a trimer, so this ensures all available LIGHT molecules are bound to by the Ligand antibody), again the second application of the ligand antibody was in the vertical orientation. […] Binding/no-binding is determined by monitoring the sensorgrams, which were double referenced using a non-LIGHT binding antibody as a control sample and was included with every set of ligand antibodies run. […]

Binder | IC50 [1] [nM] | binding result [2] | IC50 [3] [nM] | HT29 IL-8 release, IC50 [4] [nM] | binding result [5] | Kd [6] [nM] | Kd [7] [nM] | binding result [8] | IC50 [10] [nM] | IC50 [11] [nM] | IC50 [12] [nM] | Kd [14] [nM] | HT29 IL-8 release, IC50 [16] [nM] | binding result [17] | IC50 [18] [nM] | also measured
18E04 (purified from hybridoma supernatant, mouse IgG) (antibody, V domains shown, Murine C / human V chimeric IgG, lambda, purified from hybridoma supernatant) VH: QVLLVQSGAEVKKPGASVKVSCKASGYTFTHFDINWVRQATGQGLEWMGWMNPDSDNTDYAQEFQGRVTMTRDTSISTAYMELSSLRSEDTAVYYCARGGTTLDYWGQGTLVTVSS VL: SYELTQPPSVSVSPGQTARITCSGDALPKKYAYWYQQKSGQAPVLVIYEDSKRPSGIPERFSGSSSGTMATLTISGAQVEDEADYYCYSTDSSDNHVIFGGGTKLTVL | 1.32 | no binding | 1.64 | 0.327 | binds | 3.11 | 2.33 |  |  |  |  |  |  |  |  | 
01C06 in human IgG4(PE) format (antibody, V domains shown) VH: QVQLVESGGGLVKPGGSLRLSCAASGFTFSDYYMNWIRQAPGKGLEWIADISSRDNTIYYADSVKGRFTISRDNAKNSLYLQMNSLRAEDTAVYYCARERGFGDYFGMDVWGQGTTVTVSS VL: AIQLTQSPSSLSASVGDRVTIACRASQDISSALAWFRQTPGKTPKLLIYDASSLESGVPSRFLGSGSGTDFTLTISSLQPEDFAIYYCQQFNTYPLTFGGGTKVEIK |  |  |  | 0.556 |  |  |  | no binding | 2.07 | 0.698 |  |  |  |  |  | binding result [9]: binds
13H04 in human IgG4(PE) format (antibody, V domains shown) VH: QVQLVQSGAEVKKPGASVKVSCKASGYTFTSYGISWVRQAPGQGLEWMGWISAHNANTNYAQKLQGRVTMTTDTSTSTAYMELRSLRSDDTAMYYCARLYRNWFDPWGQGTLVTVSS VL: QSALTQPASVSGSPGQSITISCTGTSSDVGGYNYVSWYQQHPGKAPKLMIYDVSKRPSGVSNRFSGSKSGNTASLTISGLQAEDEADYYCCSYAGSSTLLFGGGTKLTVL |  |  |  |  |  |  |  |  |  |  | 1.29 | 0.401 | 1.22 | binds | 3.15 | Kd [13]: 0.207 nM; Kd [15]: 0.293 nM
98C07 (purified from hybridoma supernatant, mouse IgG) (antibody, V domains shown, Murine C / human V chimeric IgG, kappa, purified from hybridoma supernatant) VH: QVQLVESGGGLVKPGGSLRLSCAASGFTFSDYYMSWIRQAPGKGLEWVSYISRSSFIYYSESVKGRFTISRDNAKNSLYLQMNSLRAEDTAVYYCARWELSPFDYWGQGTLVTVSS VL: DIQMTQSPSSLSASVGDRVTITCRASQGISNYLAWFQQKPGKAPKSLIYAASSLQSGVPSKFSGSGSGTDFTLTISSLQPEDFATYFCQQYNTYPFTFGPGTKVDIK | 1.08 | no binding | 2.06 | 0.166 | binds | 0.257 | 296 |  |  |  |  |  |  |  |  | Kd [19]: 0.045 nM
01C02 in human IgG4(PE) format (antibody, V domains shown) VH: QVQLVQSGAEVQKPGASVMVSCKASGYTFTYYGISWVRQAPGQGLEWMGWISANSGNTNYAQKFQGRVTMTTDTSTNTAYMELRSLRTDDTAVYYCAKGGVAVLEYWGQGTLVTVSS VL: DIQLTQSPSFLSASVGDRVTITCWASQGISSYLAWYQQKPGKAPNLLIYVASTLQSGVPSRFSGSGSGTEFTLTISSLQPEDFATYYCQQLKIYPLTFGGGTKVEIK |  |  |  | 0.261 |  |  |  | no binding | 3.48 | 1.64 | 1.64 | 0.822 | 0.26 | binds | 3.48 | 
117C06 in human IgG4(PE) format (antibody, V domains shown) VH: QVQLVQSGAEVKKPGASVKVSCKASGYTFVNFGISWVRQAPGQGLEWMGWISVYSGNTNYAQKLQGRVTLTTDTSTTTAYMELRSLRSDDTAVYYCARHNWNDYWGQGTLVTVSS VL: not shown |  |  |  |  |  |  |  |  |  |  |  |  |  |  |  | binding result [20]: no binding
